Experimental data as given in US20240261333A1 (published 2024).
Values belong to the binder of their own block, whether it stands above or below them.

What was measured:
PRDX1 = biological target: T1, PRDX1 (human, UniProt Q06830 2-199); experiment: co-IP/MS, anti-FLAG IP of N-FLAG B3GNT2 cell lysate
T1 construct: also called NP_859048.1
T1 sequence (looked up): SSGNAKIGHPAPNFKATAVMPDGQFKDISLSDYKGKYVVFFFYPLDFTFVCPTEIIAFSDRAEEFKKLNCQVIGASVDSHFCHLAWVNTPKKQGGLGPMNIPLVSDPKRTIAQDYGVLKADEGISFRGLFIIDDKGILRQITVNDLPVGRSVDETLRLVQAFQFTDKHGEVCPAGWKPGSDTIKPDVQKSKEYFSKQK
Procedure: (§1) Cells were plated in 10-cm cell culture dishes and grown to 60-80% confluency. For each condition, two biological replicates were harvested for co-IP. Cells were washed with PBS and 4 mL of lysis buffer (20 mM HEPES, 1% Triton X-100, 150 mM NaCl, 1 mM EDTA, and 10% glycerol) containing protease inhibitor cocktail was added. Cells were scraped and lysate was incubated at 4° C. under rotary agitation for 1 h. Lysate was centrifuged at 14,000×g for 10 min at 4° C. Supernatant was transferred to a new tube and an aliquot was taken as the input. […] For Western blots, 10 μg/mL Chicken Anti-FLAG (Aves labs ET-DY100) and IgY control (R&D Systems AB-101-C) antibodies were biotinylated (Thermo Fisher Scientific 90407) and added to the respective conditions. Lysates with antibodies were incubated at 4° C. under rotary agitation overnight. For each mL of lysate, 50 μL of Pierce Protein A/G Magnetic Beads (Mass spectrometry; Thermo Fisher Scientific 88803) or Pierce Streptavidin Magnetic Beads (Western blot; Thermo Fisher Scientific 88817) was washed twice with lysis buffer. Lysates with antibodies were added to the beads and incubated at 4° C. under rotary agitation for 4 h. Beads were washed with lysis buffer 3 times and resuspended in lysis buffer for storage.
(§2) Magnetic beads were resuspended in 100 mM Tris pH 7.8, reduced, alkylated and digested with trypsin at 37° ° C. overnight. This solution was subjected to solid phase extraction to concentrate the peptides and remove unwanted reagents followed by injection onto a Shimadzu HPLC with fraction collector. Eight fractions were collected and after concentration were injected on a Waters NanoAcquity HPLC equipped with a self-packed Aeris 3 μm C18 analytical column 0.075 mm by 20 cm, (Phenomenex). Peptides were eluted using standard reverse-phase gradients. The effluent from the column was analyzed using a Thermo Orbitrap Elite mass spectrometer (nanospray configuration) operated in a data dependent manner for 54 minutes. The resulting fragmentation spectra were correlated against the known database using Proteome Discover 1.4 (Thermo Fisher Scientific).

FKBP10 = biological target: T2, FKBP10 (human, UniProt Q96AY3 27-582); experiment: as above
T2 construct: also called NP_068758.3 (+1)
T2 sequence (Q96AY3 27-582 limits assumed): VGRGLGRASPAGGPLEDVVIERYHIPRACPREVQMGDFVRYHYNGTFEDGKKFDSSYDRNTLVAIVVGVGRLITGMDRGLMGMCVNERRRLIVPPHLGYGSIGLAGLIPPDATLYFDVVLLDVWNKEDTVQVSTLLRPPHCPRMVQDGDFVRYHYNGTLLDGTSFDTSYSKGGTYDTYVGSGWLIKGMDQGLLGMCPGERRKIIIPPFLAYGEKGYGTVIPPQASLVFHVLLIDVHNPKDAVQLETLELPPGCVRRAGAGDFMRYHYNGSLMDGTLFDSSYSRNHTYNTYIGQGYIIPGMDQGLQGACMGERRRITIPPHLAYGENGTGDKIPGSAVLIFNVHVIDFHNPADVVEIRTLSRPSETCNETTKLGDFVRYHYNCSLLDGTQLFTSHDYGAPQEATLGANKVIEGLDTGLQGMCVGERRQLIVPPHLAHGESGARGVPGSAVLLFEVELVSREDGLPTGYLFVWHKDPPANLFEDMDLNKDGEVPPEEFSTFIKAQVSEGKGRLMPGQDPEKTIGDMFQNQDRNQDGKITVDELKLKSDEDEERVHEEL
Procedure: as §1, §2

RPS9 = RPS9 (human, UniProt P46781 2-194); experiment: as above
Procedure: as §1, §2

RPS15 = RPS15 (human, UniProt P62841 2-145); experiment: as above
Procedure: as §1, §2

PRDX2 = biological target: T3, PRDX2 (human, UniProt P32119 2-198); experiment: as above
T3 construct: also called NP_005800.3
T3 sequence (looked up): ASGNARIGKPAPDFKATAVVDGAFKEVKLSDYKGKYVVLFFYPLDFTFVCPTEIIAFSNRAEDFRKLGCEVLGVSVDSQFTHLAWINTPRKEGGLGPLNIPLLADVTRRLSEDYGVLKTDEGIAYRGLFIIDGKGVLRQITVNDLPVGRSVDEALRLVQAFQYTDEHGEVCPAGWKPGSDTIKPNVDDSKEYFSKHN
Procedure: as §1, §2

RPL30 = RPL30 (human, UniProt P62888 1-115); experiment: as above
Procedure: as §1, §2

RPL24 = RPL24 (human, UniProt P83731 1-157); experiment: as above
Procedure: as §1, §2

RPS3A = RPS3A (human, UniProt P61247 2-264); experiment: as above
Procedure: as §1, §2

RPS5 = RPS5 (human, UniProt P46782 1-204); experiment: as above
Procedure: as §1, §2

RPL14 = RPL14 (human, UniProt P50914 2-215); experiment: as above
Procedure: as §1, §2

PSMC2 = biological target: T4, PSMC2 (human, UniProt P35998 2-433); experiment: anti-FLAG co-IP from lysate of C-FLAG B3GNT2 cells, mass spectrometry
T4 construct: also called NP_002794.1
T4 sequence (looked up): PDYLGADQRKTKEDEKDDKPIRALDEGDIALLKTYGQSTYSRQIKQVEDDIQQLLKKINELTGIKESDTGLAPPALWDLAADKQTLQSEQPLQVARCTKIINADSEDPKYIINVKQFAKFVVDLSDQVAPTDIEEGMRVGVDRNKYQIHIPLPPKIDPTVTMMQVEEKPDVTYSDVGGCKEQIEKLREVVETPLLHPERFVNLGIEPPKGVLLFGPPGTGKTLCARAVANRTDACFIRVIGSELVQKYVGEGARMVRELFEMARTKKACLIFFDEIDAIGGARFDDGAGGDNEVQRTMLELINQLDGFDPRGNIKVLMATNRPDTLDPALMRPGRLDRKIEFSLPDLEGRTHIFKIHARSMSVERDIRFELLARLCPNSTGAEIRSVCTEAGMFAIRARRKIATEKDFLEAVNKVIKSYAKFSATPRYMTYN
Procedure: as §1, §2

PSMA5 = biological target: T5, PSMA5 (human, UniProt P28066 1-241); experiment: as above
T5 construct: also called NP_002781.2
T5 sequence (P28066 whole entry): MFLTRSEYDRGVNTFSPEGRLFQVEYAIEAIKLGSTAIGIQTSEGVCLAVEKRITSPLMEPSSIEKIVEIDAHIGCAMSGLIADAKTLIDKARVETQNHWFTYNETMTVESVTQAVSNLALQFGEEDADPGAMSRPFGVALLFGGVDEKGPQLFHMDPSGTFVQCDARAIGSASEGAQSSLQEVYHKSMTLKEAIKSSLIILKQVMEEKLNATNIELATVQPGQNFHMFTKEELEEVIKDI
Procedure: as §1, §2

ERP29 = biological target: T6, ERP29 (human, UniProt P30040 33-261); experiment: as above
T6 construct: also called NP_006808.1
Procedure: as §1, §2

PSMB4 = biological target: T7, PSMB4 (human, UniProt P28070 46-264); experiment: as above
T7 construct: also called NP_002787.2
T7 sequence (P28070 46-264 limits assumed): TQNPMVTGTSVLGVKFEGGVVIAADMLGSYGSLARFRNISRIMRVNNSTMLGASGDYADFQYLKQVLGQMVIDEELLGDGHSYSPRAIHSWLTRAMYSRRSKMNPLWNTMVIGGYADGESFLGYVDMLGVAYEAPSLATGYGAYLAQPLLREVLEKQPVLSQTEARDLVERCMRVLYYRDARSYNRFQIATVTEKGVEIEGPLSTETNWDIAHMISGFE
Procedure: as §1, §2

RPS7 = RPS7 (human, UniProt P62081 1-194); experiment: co-IP/MS, anti-FLAG IP of C-FLAG B3GNT2 cell lysate
Procedure: as §1, §2

PCBP1 = biological target: T8, PCBP1 (human, UniProt Q15365 1-356); experiment: as above
T8 construct: also called NP_006187.2
T8 sequence (Q15365 whole entry): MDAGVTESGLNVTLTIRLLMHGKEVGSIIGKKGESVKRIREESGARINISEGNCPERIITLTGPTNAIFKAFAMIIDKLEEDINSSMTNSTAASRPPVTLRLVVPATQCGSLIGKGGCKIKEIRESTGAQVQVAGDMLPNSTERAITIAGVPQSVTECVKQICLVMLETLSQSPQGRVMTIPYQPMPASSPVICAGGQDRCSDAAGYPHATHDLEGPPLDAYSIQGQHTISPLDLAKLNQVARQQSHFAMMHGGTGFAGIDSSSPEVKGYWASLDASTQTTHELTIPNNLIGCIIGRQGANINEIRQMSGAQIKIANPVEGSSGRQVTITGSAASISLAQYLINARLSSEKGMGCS
Procedure: as §1, §2

TGM3 = biological target: T9, TGM3 (human, UniProt Q08188 2-693, limits assumed); experiment: as above
T9 construct: also called NP_003236.3
T9 sequence (looked up): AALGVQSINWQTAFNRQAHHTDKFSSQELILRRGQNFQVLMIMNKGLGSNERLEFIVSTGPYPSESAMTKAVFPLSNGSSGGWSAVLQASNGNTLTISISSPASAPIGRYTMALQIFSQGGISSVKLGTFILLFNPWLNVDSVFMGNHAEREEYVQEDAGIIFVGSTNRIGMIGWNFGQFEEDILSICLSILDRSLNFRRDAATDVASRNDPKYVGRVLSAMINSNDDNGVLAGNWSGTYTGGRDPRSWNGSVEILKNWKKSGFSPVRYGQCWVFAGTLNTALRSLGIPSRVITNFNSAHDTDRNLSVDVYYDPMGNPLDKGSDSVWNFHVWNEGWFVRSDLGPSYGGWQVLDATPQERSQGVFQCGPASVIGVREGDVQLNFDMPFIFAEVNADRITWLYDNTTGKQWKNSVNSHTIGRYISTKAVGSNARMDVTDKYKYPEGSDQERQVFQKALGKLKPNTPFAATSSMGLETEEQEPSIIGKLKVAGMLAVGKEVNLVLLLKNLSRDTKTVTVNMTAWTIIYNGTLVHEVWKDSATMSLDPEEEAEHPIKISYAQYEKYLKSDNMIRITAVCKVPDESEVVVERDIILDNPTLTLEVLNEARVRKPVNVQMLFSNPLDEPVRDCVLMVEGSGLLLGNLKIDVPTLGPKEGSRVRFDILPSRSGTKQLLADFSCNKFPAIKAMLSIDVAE
Procedure: as §1, §2

PIP = biological target: T10, PIP (human, UniProt P12273 29-146); experiment: as above
T10 construct: also called NP_002643.1
T10 sequence (looked up): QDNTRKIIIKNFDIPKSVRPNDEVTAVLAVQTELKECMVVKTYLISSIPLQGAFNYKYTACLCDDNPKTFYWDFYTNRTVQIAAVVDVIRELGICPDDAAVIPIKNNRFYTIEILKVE
Procedure: as §1, §2

RPS12 = RPS12 (human, UniProt P25398 2-132); experiment: as above
Procedure: as §1, §2

CAPZA1 = CAPZA1 (human, UniProt P52907 2-286); experiment: as above
Procedure: as §1, §2

LRP1 = biological target: T11, LRP1 (human, UniProt Q07954 20-4544, limits assumed); experiment: as above
T11 construct: also called NP_002323.2 (+1)
Procedure: as §1, §2

co-IP mass spectrometry count (PRDX1): 8
co-IP mass spectrometry count (FKBP10): 0
co-IP mass spectrometry count (RPS9): 2
co-IP mass spectrometry count (RPS15): 7
co-IP mass spectrometry count (PRDX2): 9
co-IP mass spectrometry count (RPL30): 8
co-IP mass spectrometry count (RPL24): 4
co-IP mass spectrometry count (RPS3A): 12
co-IP mass spectrometry count (RPS5): 4
co-IP mass spectrometry count (RPL14): 11
B1: N-terminal FLAG tagged B3GNT2 (enzyme, human, UniProt Q9NY97 1-397, looked up)
chain: MSVGRRRIKLLGILMMANVFIYFIMEVSKSSSQEKNGKGEVIIPKEKFWKISTPPEAYWNREQEKLNRQYNPILSMLTNQTGEAGRLSNISHLNYCEPDLRVTSVVTGFNNLPDRFKDFLLYLRCRNYSLLIDQPDKCAKKPFLLLAIKSLTPHFARRQAIRESWGQESNAGNQTVVRVFLLGQTPPEDNHPDLSDMLKFESEKHQDILMWNYRDTFFNLSLKEVLFLRWVSTSCPDTEFVFKGDDDVFVNTHHILNYLNSLSKTKAKDLFIGDVIHNAGPHRDKKLKYYIPEVVYSGLYPPYAGGGGFLYSGHLALRLYHITDQVHLYPIDDVYTGMCLQKLGLVPEKHKGFRTFDIEEKNKNNICSYVDLMLVHSRKPQEMIDIWSQLQSAHLKC
notes: FLAG-tagged ORF overexpressed in cells; bait of the co-IP, pulled down with mouse anti-FLAG; also called N-FLAG B3GNT2; N-term FLAG; not shown: N-terminal FLAG tag

co-IP mass spectrometry count (PSMC2): 0
co-IP mass spectrometry count (PSMA5): 0
co-IP mass spectrometry count (ERP29): 0
co-IP mass spectrometry count (PSMB4): 0
B2: C-terminal FLAG tagged B3GNT2 (enzyme, human, UniProt Q9NY97 1-397, looked up)
chain: B1 chain
notes: Bait of the co-IP; pulled down from cell lysate with mouse anti-FLAG antibody; also called C-FLAG B3GNT2; C-term flag; not shown: C-terminal FLAG tag

co-IP mass spectrometry count (RPS7): 8
co-IP mass spectrometry count (PCBP1): 4
co-IP mass spectrometry count (TGM3): 5
co-IP mass spectrometry count (PIP): 3
co-IP mass spectrometry count (RPS12): 8
co-IP mass spectrometry count (CAPZA1): 0
co-IP mass spectrometry count (LRP1): 0
B3: C-terminal FLAG tagged B3GNT2 (enzyme, human, UniProt Q9NY97 1-397, looked up)
chain: B1 chain
notes: FLAG-tagged ORF overexpressed in cells; bait of the co-IP, pulled down with mouse anti-FLAG; also called C-FLAG B3GNT2; C-term flag; not shown: C-terminal FLAG tag
